Test results as given in article PMC4790445 (Nature structural & molecular biology, 2015).

Target: WT EGFR kinase (residues 696-1022) (human, UniProt P00533 696-1022)
Assay: kinase inhibition kinetics

- Ki: 10 to 20 nM
B1: unphosphorylated Mig6 segment 1+2 (residues 330-399) (domain or fragment, human, UniProt Q9UJM3 330-399, looked up)
chain: SRTPSPKSLPSYLNGVMPPTQSFAPDPKYVSSKALQRQNSEGSASKVPCILPIIENGKKVSSTHYYLLPE
